The subject of the series is Escherichia coli TOP10. Description: shrunken log2 fold change of peptide-encoding DNA abundance (4.5 h post-induction vs induction); higher = less antimicrobial activity (less host growth inhibition). The settings on record: time post-induction: 4.5 h; library: site-saturation at positions 5, 18, 19, 20.
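Note: peptides expressed intracellularly from a pBAD plasmid library in pooled LB shake-flask culture, induced with 0.3% L-arabinose, DNA abundance read by NGS, three biological replicates, DESeq2 with apeglm shrinkage.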

Take RRIRCRPPRLPRPRPRPDKRPRP: the “shrunken log2 fold change” value was 0.00837.

On to RRIRKRPPRLPRPRPRPTYAPRP, for which the “shrunken log2 fold change” value is 0.431.

Take RRIRSRPPRLPRPRPRPTARPRP: the “shrunken log2 fold change” value is 0.44.

Turning to RRIRVRPPRLPRPRPRPEYGPRP, the “shrunken log2 fold change” value is -0.00905.

On to RRIRNRPPRLPRPRPRPQLDPRP, for which the “shrunken log2 fold change” value stood at 0.112.

For the sequence RRIRCRPPRLPRPRPRPIYTPRP, the “shrunken log2 fold change” value was -0.234.

Regarding RRIRIRPPRLPRPRPRPLIVPRP, the “shrunken log2 fold change” value was -0.622.

As for RRIRSRPPRLPRPRPRPAVLPRP, the “shrunken log2 fold change” value was -0.355.

As to RRIRSRPPRLPRPRPRPLDPPRP, the “shrunken log2 fold change” value was -0.0203.

For RRIRARPPRLPRPRPRPQWYPRP, the “shrunken log2 fold change” value was -0.523.

For the sequence RRIRFRPPRLPRPRPRPECLPRP, the “shrunken log2 fold change” value was -0.0562.

For RRIRERPPRLPRPRPRPQPLPRP, the “shrunken log2 fold change” value was -0.202.

Take RRIRSRPPRLPRPRPRPDNSPRP: the “shrunken log2 fold change” value was -0.13.

Regarding RRIRKRPPRLPRPRPRPLADPRP, the “shrunken log2 fold change” value was 0.559.

On to RRIRKRPPRLPRPRPRPIGRPRP, for which the “shrunken log2 fold change” value was found to be 0.015.

For the sequence RRIRNRPPRLPRPRPRPRPFPRP, the “shrunken log2 fold change” value worked out at 0.472.

As for RRIRLRPPRLPRPRPRPWWTPRP, the “shrunken log2 fold change” value was -0.312.

With RRIRHRPPRLPRPRPRPHEKPRP, the “shrunken log2 fold change” value is -0.00373.

Turning to RRIRKRPPRLPRPRPRPCWHPRP, the “shrunken log2 fold change” value was 0.00832.

Consider RRIRGRPPRLPRPRPRPGCCPRP, for which the “shrunken log2 fold change” value is 1.2.

RRIRNRPPRLPRPRPRPPVCPRP: the “shrunken log2 fold change” value is 0.126.

In the case of RRIRQRPPRLPRPRPRPNTYPRP, the “shrunken log2 fold change” value was -1.07.

For RRIRVRPPRLPRPRPRPCAHPRP, the “shrunken log2 fold change” value was -0.0704.

Turning to RRIRARPPRLPRPRPRPTWTPRP, the “shrunken log2 fold change” value amounted to 0.425.

Take RRIRDRPPRLPRPRPRPMLHPRP: the “shrunken log2 fold change” value is 0.202.

As for RRIRNRPPRLPRPRPRPMPCPRP, the “shrunken log2 fold change” value is 0.05.

On to RRIRERPPRLPRPRPRPFLFPRP, for which the “shrunken log2 fold change” value is -0.286.

As to RRIRVRPPRLPRPRPRPVACPRP, the “shrunken log2 fold change” value turned out to be 0.167.

In the case of RRIRARPPRLPRPRPRPWRRPRP, the “shrunken log2 fold change” value turned out to be 0.267.

Turning to RRIRNRPPRLPRPRPRPRKQPRP, the “shrunken log2 fold change” value was determined as 0.215.

Take RRIRDRPPRLPRPRPRPSLQPRP: the “shrunken log2 fold change” value was determined as 0.073.

With RRIRCRPPRLPRPRPRPNCHPRP, the “shrunken log2 fold change” value is -0.314.

Consider RRIRWRPPRLPRPRPRPNTGPRP, for which the “shrunken log2 fold change” value is -0.096.

Regarding RRIRHRPPRLPRPRPRPLQNPRP, the “shrunken log2 fold change” value was -0.00367.

As to RRIRLRPPRLPRPRPRPKQVPRP, the “shrunken log2 fold change” value was -0.0171.

On to RRIRTRPPRLPRPRPRPWYMPRP, for which the “shrunken log2 fold change” value is -0.0891.

Take RRIRLRPPRLPRPRPRPFTYPRP: the “shrunken log2 fold change” value was -0.0906.

With RRIRNRPPRLPRPRPRPSSQPRP, the “shrunken log2 fold change” value is -0.208.

On to RRIRKRPPRLPRPRPRPGTVPRP, for which the “shrunken log2 fold change” value was 0.0317.

Take RRIRDRPPRLPRPRPRPGSVPRP: the “shrunken log2 fold change” value came to 0.113.

As to RRIRKRPPRLPRPRPRPMGKPRP, the “shrunken log2 fold change” value was -0.0982.

On to RRIRRRPPRLPRPRPRPTYIPRP, for which the “shrunken log2 fold change” value is -0.12.

On to RRIRVRPPRLPRPRPRPCWHPRP, for which the “shrunken log2 fold change” value was -0.0327.

On to RRIRFRPPRLPRPRPRPCRIPRP, for which the “shrunken log2 fold change” value is -2.21.

RRIRPRPPRLPRPRPRPRITPRP: the “shrunken log2 fold change” value is 0.0754.

Turning to RRIRIRPPRLPRPRPRPDKNPRP, the “shrunken log2 fold change” value is -0.673.

Take RRIRMRPPRLPRPRPRPHNEPRP: the “shrunken log2 fold change” value was -0.356.

Take RRIRHRPPRLPRPRPRPALIPRP: the “shrunken log2 fold change” value came out at 0.0852.

Consider RRIRHRPPRLPRPRPRPNIHPRP, for which the “shrunken log2 fold change” value is -0.364.

Regarding RRIRYRPPRLPRPRPRPYKWPRP, the “shrunken log2 fold change” value is -0.169.

(Values after the supplement of paper PMC9112550, “Optimization of the antimicrobial peptide Bac7 by deep mutational scanning” (BMC Biology, 2022).)
